In patent publication US20210196795A1 (LAURANTIS PHARMA, published 2021):

Columns and labels:
[1] = molecular target: human CCBE1 fused to a V5 tag (human) (UniProt Q6UXH8); experiment: cell-based or functional assay
[2] = molecular target: T1, uncleaved full-length VEGF-C (58 kDa precursor) (Homo sapiens (Human), UniProt P49767 32-419); experiment: Strep-Tactin pull-down of mixed 293T conditioned media (CCBE1-strepIII and full-length VEGF-C, 10 min at RT), Western blot with anti-CCBE1 antibody and anti-VEGF-C antiserum
T1 construct: Made by transfected 293T cells from the mammalian VEGF-C construct of Joukov et al 1997; also called VEGF-C precursor; prepro-VEGF-C
T1 sequence: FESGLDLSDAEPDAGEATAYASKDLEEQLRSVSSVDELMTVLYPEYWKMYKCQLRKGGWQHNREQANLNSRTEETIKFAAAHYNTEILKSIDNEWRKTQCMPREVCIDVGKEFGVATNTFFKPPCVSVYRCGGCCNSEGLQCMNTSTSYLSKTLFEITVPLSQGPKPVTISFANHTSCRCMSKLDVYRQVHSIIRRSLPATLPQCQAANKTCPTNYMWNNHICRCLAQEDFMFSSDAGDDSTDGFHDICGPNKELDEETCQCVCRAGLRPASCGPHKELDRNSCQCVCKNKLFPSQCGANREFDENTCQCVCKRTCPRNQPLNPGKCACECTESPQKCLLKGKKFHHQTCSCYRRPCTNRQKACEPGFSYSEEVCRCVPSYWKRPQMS
Protocol: Co-immunoprecipitation analysis of strep-tagged CCBE1. […] Mixed media were incubated for 10 min at RT before being applied to the pull-down.

“VEGF-C C-terminal propeptide, hexahistidine-tagged (from UniProt P49767 228-419)” gave an inhibition of VEGF-C processing [1] of 79%.

Molecule “VEGF-C N-terminal propeptide, hexahistidine-tagged (from UniProt P49767 32-111)” has an inhibition of VEGF-C processing [1] of 43%.

B1: CCBE1-strepIII (human CCBE1 with StrepIII-tag) (other)
chain: YREEPEDGDREICSESKIATTKYPCLKSSGELTTCYRKKCCKGYKFVLGQCIPEDYDVCAEAPCEQQCTDNFGRVLCTCYPGYRYDRERHRKREKPYCLDIDECASSNGTLCAHICINTLGSYRCECREGYIREDDGKTCTRGDKYPNDTGHEKSENMVKAGTCCATCKEFYQMKQTVLQLKQKIALLPNNAADLGKYITGDKVLASNTYLPGPPGLPGGQGPPGSPGPKGSPGFPGMPGPPGQPGPRGSMGPMGPSPDLSHIKQGRRGPVGPPGAPGRDGSKGERGAPGPRGSPGPPGSFDFLLLMLADIRNDITELQEKVFGHRTHSSAEEFPLPQEFPSYPEAMDLGSGDDHPRRTETRDLRAPRDFYP
notes: Secreted into 293T conditioned medium; also called strep-tagged CCBE1; not shown: StrepIII-tag (Junttila et al 2005) inserted immediately after the CCBE1 CDS
B1: no binding [2].
